For this assay, the target named is T1, flag-tagged soluble TL3 (amino acids 105-251 of SEQ ID NO:234) (Homo sapiens (Human), UniProt O75888 105-250).
T1 construct: Heterologous flag-tagged control protein, immobilized in the ELISA; also called flagged tagged TL-3; not shown: Flag tag
T1 sequence: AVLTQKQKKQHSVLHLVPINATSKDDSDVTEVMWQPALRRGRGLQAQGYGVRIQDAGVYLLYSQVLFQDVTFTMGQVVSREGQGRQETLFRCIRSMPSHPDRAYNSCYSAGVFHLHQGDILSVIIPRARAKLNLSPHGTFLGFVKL
Put plainly: phage ELISA on immobilized flag-tagged soluble TL3. The method, boiled down:
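Phage displaying scFvs selected against flag-tagged GMAD were screened by ELISA against immobilized flag-tagged soluble TL3 (residues 105-251) as a heterologous flag-tagged counter-target, to check that binding is GMAD-specific.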

We go through 19 molecules from patent US20050069542A1 (Human Genome Sciences, published 2005).

B1: GMCC119 (scFv)
scFv: EVQLVQSGPEVKKPGASVKVSCKASNYTFTTYDISWVRQAPGQGLEWMGWISTYSGNTKYAQKFQGRVTMTRDTSTSAAYMELRNLRSDDTAVYFCARDIRVWRGSGSVHYFDPWGRGTTVTVSSGGGGSGGGGSGGGGSAQSALTQPRSVSGSPGQSVTISCTGTSNDVGGYNFVSWYQQHPGKAPKLMVYNVSKRPSGVPDRFSGSKSGNTASLTISGLQAEDEADYYCSSYAHSYTLVFGGGTKVTVLG
For B1, the binding result is recorded as “no binding”.

B2: GMCC107 (scFv)
scFv: QVQLVQSGAEVKKPGASVKVSCRTSGYTFTDHSMHWVRQAPGQRFEWMGWIGADSGSTQYSRNFQGRLTIGRDTSASTVYMELTSLRSEDTAVYYCARVGGGQGWYSGMDVWGRGTLVTVSSGGGGSGGGGSGGGGSAQAVLTQPSSVSGAPGQRVTISCTGSSSNIGASYDVHWYQQLPGTAPKLLIYNNNNRPSGVPDRFSGSRSGTSASLAITGLQAEDEADYYCHSYDSNLSGDVFGSGTKLTVLG
Consider B2, for which the binding result was “no binding”.

B3: GMBC612 (scFv)
scFv: EVQLVESGGGVVQPGGSLRLSCAASGFSFSSYGMQWVRQAPGKGLEWVAFIRYDGSIKYYADSVKGRFTVSRDNSKNTLYLQMNSLRAEDTAVYYCARGYRIVDYWGQGTLVTVSSGGGGSGGGGSGGGGSDIQMTQSPSTLSPSIGDRVTITCRASEGIYHWLAWYQQKPGKAPKLLIYKASSLASGAPSRFSGSGSGTDFTLTISSLQPDDFATYYCQQYSNYPLTFGGGTKLEIKR
Take B3: the binding result is reported as “no binding”.

B4: GMCC125 (scFv)
scFv: EVQLVQSGGGLVKPGGSLRLSCAASGFSFSDYSMHWIRQAPGKGLEWLSHIGTSTSYTNYADSVKGRFTISRDNAKNSFYLQMNSLRVDDTAVYFCARGFGGLRGYFDYWGQGTLVTVSSGGGGSGGGGSGGGGSALSSELTQDPAVSVALGQTVKITCQGDRLRRFYASWYQQKPGQAPLLLIYGKNSRPSGIPDRFSGSTSGATASLTITGAQAEDEADYYCNSRDSSGSLHSVFGTGTKVTVLG
Consider B4, for which the binding result was “no binding”.

B5: GMBC610 (scFv)
scFv: QVTLKESGAEVKKPGASVKVSCKTSGFTFGAYYIHWVRQVPGQGLEWMGWIDPNNGGTNYAQKFQGRVTMTRDMSTTTTYMEVSGLHSDDTAVYYCARARVATILEYWGRGTLVTVSSGGGGSGGGGSGGGGSPELTQDPAVSVALGQTVRITCQGDSLRSYYASWYQQKPGQAPVLVIYGKNNRPSGIPDRFSGSSSGNTASLTITGAQAEDEADYYCNSRDSSGNHVVFGGGTKLTVLG
As to B5, the binding result is on record as “no binding”.

B6: GMCC118 (scFv)
scFv: EVQLVQSGGGLVKPGGSLRLSCTASGFSFTNAWMSWVRQAPGKGLEWVGRIKSRNDGGATDYAAPVKGRFTISRDDSKNTLYLQMNSLKTDDTAVYYCTTDNFPLRFLEWLSHPDYWGQGTMVTVSSGGGGSGGGGSGGGGSAQAVLTQPSSVSVSPGQTVTITCSGEKLDNKYISWYQQRPGRSPILVIYQDRKRPSGIPERFSGSNSGNTATLTITGSQPLDEADYYCQAWDSSTAWEFGGGTKLTVLG
B6: the binding result was “no binding”.

B7: GMBC687 (scFv)
scFv: QVQLVQSGAEVKKPGSSVKVSCKAPGDTFSNYIFNWVRQAPGQGLEWMGGIIPKFGTVNDAHKFQDRVTIAADESTNTASMELSSLTSEDTAVYYCACEPIPKDYGDVNGLEIWGKGTMVTVSSGGGGSGGGGSGGGGSDIQMTQSPSTLSASIGDRVTITCRASEGIYHWLAWYQQKPGKAPKLLIYKASSLASGAPSRFSGSGSGTDFTLTISSLQPDDFATYYCQQYSNYPLTFGGGTKLEIKR
In the case of B7, the binding result was “no binding”.

B8: GMCC110 (scFv)
scFv: QVQLQESGPGLVKPSQTLSLTCTVSGASISSGGYRWIWIRQHPGQGLEWIGDIHYSGSTQYNPSLKSRVALTLDRSKNQFSLQLSSVTAADTAVYYCARDPRGHTYGYGYYFDYWGKGTLVTVSSGGGGSGGGGSGGGGSALSSELTQDPDVSVALGQTVTITCQGDRLRRYYASWYQQKPGQAPVLVIFRKNNRPSGIPDRFSGSSSGDTASLTITGAQAEDEADYYCNSRDTSGTLSFGGGTQLTVLS
With B8, the binding result is “no binding”.

B9: GMCC106 (scFv)
scFv: QVQLQESGPGLVKPSGTLSLTCAVSVGSINESNWWSWVRQSPGKGLEWIGEIYPTGTTNYNPSLESRVTISVDKSRNLFSLKLKSVTAADSAMYFCARDRWAGGFDLWGRGTMVTVSSGGGGSGGGGSGGGGSAQSVLTQPPSASGTPGQRVTISCSGSSSNIGSNSVYWYQQLPGTAPKLLIYRNNQRPSGVPDRFSASKSGTSASLAISGLRSEDEADYYCAAWDDSLSGLVFGGGTKLTVLG
B9: the binding result is reported as “no binding”.

B10: GMCC105 (scFv)
scFv: QVQLVQSGGGVVQPGRSLRLSCTASGFNLGSHGMHWVRQAPGKGLEWVAVIGFDGTTKYYVDSVKGRFTISRDNSRNTLSLQMNSLRAEDTAVYYCVREDYYYDSSGYYFDYWGRGTLVTVSSGGGGSGGGGSGGGGSALSSELTQDPFVSVALGQTVRIACRGDSLRDSYASWYQQKPGQAPRLLVYGNNLRPSGIPGRFSGSSSGDTASLSITETQAGDEADYYCSSRGNSTSRLYVFGTGTKLTVLG
For B10, the binding result is “no binding”.

B11: GMCC101 (scFv)
scFv: EVQLVQSGAEVKKPGSSVKVSCKASGGTFRTYAITWVRQAPGQGLEWMGGIIPISATANYAQKFQGRVTITADESMSTAYMELSSLRSEDTAVYYCARDREPHYFDNWGRGTMVTVSSGGGGSGGGGSGGGGSALPVLTQPPSVSEAPRQGVTISCSGSSSNIGNNAVSWYQQLPGQAPKLLIYYDDLLPSGVSDRFSASKSGTSASLAISGLQSEDEADYYCAAWDDSLNGVIFGGGTQLTVLS
Turning to B11, the binding result was “no binding”.

B12: GMCC114 (scFv)
scFv: EVQLVESGPEVKKPGSSVKVSCKASGAAAFSSYAISWVRQAPGRGLEWMGGIIPISDTPKYAHKFQGRVTITADESTTTVFMEVSGLRSDDTAVYYCATTTRYGSGTYDYMDVWGQGTMVTVSSGGGGSGGGGSGGGGSALSSELTQDPAVSVALGQTVRITCQGDSLRSYYASWYQQKPGQAPVLVFYGKNKRPSGIPDRFSGSTSGNTASLSITGALADDEADYYCHSRDTSGAQILFGGGTKLTVLG
On to B12, for which the binding result was “no binding”.

B13: GMBC689 (scFv)
scFv: QVQLVESGGGLVKPGGSLRLSCAASGFTFSDAWMNWVRQAPGKGLEWVGRIKSKGSGGTIDYAAPVKDRFTISRDDSKNTLYLQMNSLKTEDTALYYCTWDWDFYYGMNVWGQGTLVTVSSGGGGSGGGGSGGGGSQSVLTQPPSASGSPGQSVTISCTGTSSDVGGYNYVSWYQQHPGKAPKFMIYDVSKRPSGVSNRFSGSKSGNTASLTISGVQAEDEADYYCSSYTSASTVVFGGGTKLTVLG
B13: the binding result is on record as “no binding”.

B14: GMCC124 (scFv)
scFv: QVTLKESGAEVKKPGASVKVSCKASGYTFTDNALHWVRQAPGQRPEWMAWINTANGNTRYSQKFQGRLTITRDTSASTAFMDLSSLRSEDTAVYYCARQKAYKNYYYYYGMDVWGQGTLVTVSSGGGGSGGGGSGGGGSAQSVVTQPPSVSAAPGQKVTISCSGSSSNIGNNYVSWYQQLPGTAPKLLIYENNKRPSGIPDRFSGSQSGTSATLGISGLQTGDEADYYCGTWDSSLRAGVFGGGTKLTVLG
Turning to B14, the binding result is recorded as “no binding”.

B15: GMCC108 (scFv)
scFv: EVQLVQSGAEVKEPGASVTVSCKASGYTFISYHMHWVRQAPGQGLEWMGIINPSGGDTTYAQKFQGRVTMTRDTSTSTVYMELRSLRFEDTARYYCARDLKFYDFRSGKYQDYGMDVWGQGTLVTVSSGGGGSGGGGSGGGGSAQSVLTQPPSLSVAPGQTASITCGGNDIGTKSVHWYQLKPGQAPVLVVYDNRDRPSGIPERFSGSNSGNTATLTISRVEGGDEADYYCQVWDSSIDHSEYVFGTGTKLTVLG
Regarding B15, the binding result is recorded as “no binding”.

B16: GMCC112 (scFv)
scFv: QVQLVQSGGGLVQPGGSLRLSCAASGFSFSTYAMSWVRQAPGKGLEWVSGVSDGGDTFYADSVRGRFTLSRDNAKNTLFLQMNSLTAEDTATYYCAKEIARIGVPNFDHWGQGTLVTVSSGGGGSGGGGSGGGGSALETTLTQSPGTLSLSPGDRATLSCRASQSIRNNDVAWYQQKPGQAPRLLIYSASRRATDIPDRFSGSASGTDFTLTISRLEPEDFAMYYCQQYGGSASFGQGTRLEIKR
Take B16: the binding result is on record as “no binding”.

B17: GMBC730 (scFv)
scFv: QVQLVESGGDSVKPGGSLRLSCAGSGFTFSDAWMNWVRQAPGKGLEWVGRMKSKGSGGTRDYAAPVNGRFTISRDDSKNTLYLQMNSLNTEDTGVYYCTWDWDFYYGMDVWGKGTTVTVSSGGGGSGGGGSGGGGSQSVLTQPASVSGSPGQSITISCTGTSSDVGGYNYVSWYQQHPGKAPKLMIYEGSKRPSGVSNRFSGSKSGNTASLTISGLQAEDEADYYCSSYTTRSTRVFGGGTKLTVLG
Regarding B17, the binding result is “no binding”.

B18: GMBC691 (scFv)
scFv: EVQLVQSGAEVKKPGASMKVSCKTSGDTFNGFYVHWVRQAPGQGLEWMGRINPNGGGTNYAQKFQGRVTMTRDTSMNTAYMELRSLRSDDTAVYYCARDLFYDFWSDYYRNDQYYYMDVWGRGTLVTVSSGGGGSGGGGSGGGGSSELTQDPAVSVALGQTVRITCQGDSLRSYYASWYQQKPGQAPVLVIYGKNNRPSGIPDRFSGSSSGNTASLTITGAQAEDEADYYCNSRDSSGNHVVFGGGTKLTVLG
In the case of B18, the binding result is “no binding”.

B19: GMBC696 (scFv)
scFv: EVQLVQSRAEVKKPGASVKVSCKTSGYTFNGYYIHWVRQAPGQGLEWMGWIDPINSVTNYAQNFQGRVTMTRDTSINTAYMELSRLTSDDTAVYYCARARVSTILQYWGQGTLVTVSSGGGGSGGGGSGGGGSSELTQDPAVSVALGQTVRITCQGDSLRSYYASWYQQKPGQAPVLVIYGKNNRPSGIPDRFSGSSSGNTASLTITGAQAEDEADYYCNSRDSSGNHVVFGGGTKLTVLG
As for B19, the binding result was “no binding”.
